Measured values reported in the nanobody polyreactivity screen of Harvey et al. (2022).

Assay: yeast display, Sf9 membrane polyspecificity reagent, FACS + sequencing; frameworks hold sequencing errors
Summary of the method: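 Nanobodies came from a synthetic yeast display library in Saccharomyces cerevisiae BJ5465, induced with galactose for 36–48 hours and stained for 1 hour at 4 °C with 10% biotinylated, detergent-solubilized Sf9 membrane reagent. Cells were enriched on streptavidin microbeads and then FACS-sorted, with low and high (top ~1%) gates set on anti-HA fluorescence for expression and streptavidin fluorescence for reagent binding. Each polyreactivity label reflects the gate a clone came from. Genes were amplified by colony PCR, sequenced by MiSeq 2 × 250 and filtered by CDR length.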

Sequence | polyreactivity (PSR sort gate)
QVQLVESGGGLVQAGGSLRLSCAASGFIFGINAMGWYRQAPWKERELVAAISTGDRTNYADSVKGRFTISRDNAKNTVYLQMNSLKPEDTAVYYCAKDWRRNRPYEWTYDYWGQGTQVTVSS | low polyreactivity
QVQLVESGGGLVQAGGSLRLSCAASGFIFGKNALGWYRQAPGKERELVAVISWRGSSTYYADSVKGRFTISRDNAKNTVYLQMNSLKPEDTAVYYCAARYPARGTLYYWGQGTQVTVSS | low polyreactivity
QVQLVESGGGLVQAGGSLRLSCAASGFIFGLNAMGWYRQPPGKERELVAVISGRGRTYYADSVKGRFTISRDNAKNTVYLQMNSLKPEDTAVYYCNAVSSYGYDYWGQGTQVTVSS | high polyreactivity
QVQLVESGGGLVQAGGSLRLSCAASGFIFGNYVMGWYRQAPGKERELVAAITNGGGNTYYADSVKGRFTISRDNAKNTVYLQMNSLKPEDTAVYYCHPLRYYYWGQGTQVTVSS | high polyreactivity
QVQLVESGGGLVQAGGSLRLSCAASGFIFGQYAMGWYRQAPGKERELVAAISWSGGRTNYADSVKGRFTISRDNAKYTVYLQMNSLKPEDTAVSYCAARKGKYPQYTYGYWGQGTQVSVSS | high polyreactivity
QVQLVESGGGLVQAGGSLRLSCAASGFIFGRNAMGWYRQAPGKERELVAVISKRSGNTYYADSVKGRFTISRDNAKNTVYLQMNSLKPEDTAVYYCNAVDQKLLRYDYWGQGTQVTVSS | high polyreactivity
QVQLVESGGGLVQAGGSLRLSCAASGFIFGRNVMGWYRQAPGKERELVASISRSGGRTTYADSVKGRFTISRDNAKNTVYLLMNSLKPEDTAVYYCAKGQYQWERYVSHADYDWGQVTQVTVSS | high polyreactivity
QVQLVESGGGLVQAGGSLRLSCAASGFIFGRYAMGWYRQAPGKERELVAAISRSGGSTHYADSVKGRFTISRDNAKNTVYLQMNSLKQVDTAVYYCNTYLTIWGYFYGYDYWGQGTQVTVSS | high polyreactivity
QVQLVESGGGLVQAGGSLRLSCAASGFIFGRYARGWYRQAPVKERELVAAINWSGGSTYYADSVKGRFTISRDNAKNTVYLQMNSLKPEDTAVYYCAARTSRRDGGGSYDYWGQGTQVTVSS | high polyreactivity
QVQLVESGGGLVQAGGSLRLSCAASGFIFGSNAMGWYRQAPGKERELVAAISRSGGSTYYADTVKGRFTISRDNAKNTVYLQMNSLKPEDTAVYYCNVDLWPFVYSWWSYDYWGQGTQVTVSS | high polyreactivity
QVQLVESGGGLVQAGGSLRLSCAASGFIFGSNVMGWYRQAPGKERELVAAITSGSRTYYADSVKGRFTISRDNAKNTVYLQMNSLKPEDTAVYYCAKRNPIKYYGGGYWGQGTQVTVSS | high polyreactivity
QVQLVESGGGLVQAGGSLRLSCAASGFIFGSYAMGWYRQAPGKERELVAAISDSGDSTYYADSVKGRYTISRDNAKNTVYLQMNSLKPEDTAVYYCNRGYRWRRCENYYWGQGTQVTVSS | high polyreactivity
QVQLVESGGGLVQAGGSLRLSCAASGFIFGSYTMGWYRQAPGKERELVAAISSSVGRTYYADSVKGRFTISRDNAKNTVYLQMNSLKPEDTAVYYCAARRHGRVDYSQGSRESDYWGQGTQVTVSS | high polyreactivity
QVQLVESGGGLVQAGGSLRLSCAASGFIFGTYAMGWYRQAPGKEWELVAAISSGGSTFYADSVKGRFTISRDNEKNTVYLQMYSLKPEDTAVYYCAKEGGTYRIFNYWGQGTQVTVSS | low polyreactivity
QVQLVESGGGLVQAGGSLRLSCAASGFIFGVYAMGWYRQAPGKERELVAAITSSGTSTYYADSVKGRFTISRDNAKNTVYLQMNSLKPEDTAVYYCNKSGYIYHRKLWTPYYYWGQGTQGTVSS | low polyreactivity
QVQLVESGGGLVQAGGSLRLSCAASGFIFGWYAMGWYRQAPGKERELVAAISRSGGSTYYADSVKGRFTISRDNAMNTVYLQMNCLKPEDTAVYYCAAQRSYAYEYWGQGTQVTVSS | high polyreactivity
QVQLVESGGGLVQAGGSLRLSCAASGFIFGYNAMGWYRQAPGKERELVAAIDWSGTSTYYADSVKGRFTISRDNAKNTVYLQMNSLKPEDTAVYYCAADTSTWAHTRGYDYWGQGTQVTVSS | high polyreactivity
QVQLVESGGGLVQAGGSLRLSCAASGFIFGYNGMGWYRQAPGKERELVAYADSVKGRFTISRDNAKNTVYLQMNSLKPEDTAVYFCAADRGYVWRYDYWGQGTQVTVSS | low polyreactivity
QVQLVESGGGLVQAGGSLRLSCAASGFIFGYYAMGWYIPAPGKERELVAAISGSGGSTYYADSVKGRFTISRDNAKNTVYLQMNSLKPEDTAVYYCAAYGRAPGTSQRYDYRGQGTQVTVSS | high polyreactivity
QVQLVESGGGLVQAGGSLRLSCAASGFIFGYYAMGWYRQAPGKERELVAAISFSGDRTYYADSVKGRFTISRDNAKNTVYLQMNSLKPEDTAVYYCNAKRWGDYTQYRYNYWGQGTQVTVSS | high polyreactivity
QVQLVESGGGLVQAGGSLRLSCAASGFIFGYYAMGWYRQAPGKERELVAAISKSGGSTYYADSVKGRFTISRDNAKNTVYLQMNSLKPEDTAVYYCAARYTRPFGPFDYWGQGTQVTVSS | low polyreactivity
QVQLVESGGGLVQAGGSLRLSCAASGFIFGYYTMGWYRQAPGKERELVASITRGGSTNYADSVKGRFTISRDNAKNTVYIQMNSLKPEDTAVYYCAKRYAQTYSVSRYYYWGQGTQVTVSS | high polyreactivity
QVQLVESGGGLVQAGGSLRLSCAASGFIFGYYTMGWYRQAPGKERELVASITRGGSTNYADSVKGRFTISRDNAKYTVYLQMNSLNPEDTAVYYCAKRYAQTYSVSRYYYWGQGTQVTVSS | high polyreactivity
QVQLVESGGGLVQAGGSLRLSCAASGFIFHFNAMGWYRQAPGKERELVAAISRTGGTTYYADSVKGRFTISRDNAKNTVYLQMNSLKPEVTAVYYCAAYSTYVQHYDYWGQGTQVTVSS | high polyreactivity
QVQLVESGGGLVQAGGSLRLSCAASGFIFHLYGMAWYRQAPGKERELVAAISSGGRAYYADSVKGRFTISRDNAKNTVYLQMNSLKPEDTAVYDCAVYVAYLYSYYYWGQGTQVTVSS | low polyreactivity
QVQLVESGGGLVQAGGSLRLSCAASGFIFHLYSLGWYRQAPGKERELVAVISGGGSTYYADSVKGRFTISRDNAKNTVYLQMNSLKPEDTAVYYCNVGRYYRYATGGDYWGQGTQVTVSS | high polyreactivity
QVQLVESGGGLVQAGGSLRLSCAASGFIFHPYAMGWYRQAPGKERELVATITWSDDSTYYADSVKGRFTISRDNAKNTVYLQMNSLKPEDTAVYYCAARHKQHNRYDYWGQGTQVTVSS | low polyreactivity
QVQLVESGGGLVQAGGSLRLSCAASGFIFHRYAMGWYRQAPGKERELVASITRSGGSTYYADSVKGRFTISRDNAKNTVYLQMISLKPEDTAVYYCAAQLPSYYKYPRHDYWGQGTQVTVSS | high polyreactivity
QVQLVESGGGLVQAGGSLRLSCAASGFIFIFYAMGWYRQAPGKERELVAGISWSSSSTYYADSVKGRFTISRDNAKNTVYLQMNSLKPEDTAVYYCAKDGRSVSGEYDYWGQGTQVTVSS | low polyreactivity
QVQLVESGGGLVQAGGSLRLSCAASGFIFITVNAMGWYRQAPGKEREFVAAITRSGTGTYYADSVKGRFTISRDNAKNTVYLQMNSLKPEDTAVYYCAAEWSEESDYWGQGTQVTVSS | low polyreactivity
